In patent US20160208003A1 (AFFITECH RESEARCH, published 2016):
Changes are numbered by the printed parent chain. Each block holds one binder with its values, some of them ahead of it.

Tests used:
[1] = biological target: T1, human CC chemokine receptor 4 (CCR4) (human, UniProt P51679 1-360); assay: cell-based or functional assay
T1 sequence (looked up): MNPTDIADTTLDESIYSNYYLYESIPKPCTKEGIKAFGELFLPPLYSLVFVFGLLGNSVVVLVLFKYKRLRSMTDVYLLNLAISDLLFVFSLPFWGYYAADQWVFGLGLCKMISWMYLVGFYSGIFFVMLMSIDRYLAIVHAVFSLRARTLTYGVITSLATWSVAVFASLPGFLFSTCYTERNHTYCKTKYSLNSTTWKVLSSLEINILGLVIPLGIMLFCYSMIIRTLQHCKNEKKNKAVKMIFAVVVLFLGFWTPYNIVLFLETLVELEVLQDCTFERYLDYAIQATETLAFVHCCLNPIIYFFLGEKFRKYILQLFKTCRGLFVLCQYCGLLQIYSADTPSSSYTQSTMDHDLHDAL

[2] = biological target: T1, human CC chemokine receptor 4 (CCR4); assay: flow cytometry, IgG titration on CCRF-CEM cells, anti-human-PE, MFI
[3] = biological target: T1, human CC chemokine receptor 4 (CCR4); assay: calculated from the IC50; CCRF-CEM cells, competitor 0.7 nM biotinylated IgG 9E
Procedure: (§1) DT40 and CCRF-CEM cells were cultivated as described in Example 2. The cells were harvested from culture flasks, washed 2 times with PBS (400×g, 5 min, 4° C.) and resuspended in PBS containing 0.2% BSA and 0.09% NaN3. 1×10^5 cells per well were aliquoted into V-shaped 96-well plates (Griner Bio-One, Frikenhausen, Germany). Cells were centrifuged (400×g, 5 min, 4° C.) and resuspended in 50 μl IgG 9E10J or KM3060var (dilution series starting at 5 μg/ml) mixed with biotinylated competitor antibody 9E (0.1 or 0.5 μg/ml). The cells were incubated for 2 hours at 4° C., mixing with a pipette every 45 min. The cells were washed three times with 150 μl PBS with 0.2% BSA and 0.09% NaN3 and stained with 3 μg/ml streptavidin PE (BD Biosciences) for 45 minutes at 4° C. Cells were washed, resuspended in 200 μl PBS with 0.2% BSA and 0.09% NaN3, and transferred to a U-shaped 96 well Costar (Corning, Schiphol-Rijik, The Netherlands) plate for flow cytometry using an FACS Canto II flow cytometer (BD Biosciences, Heidelberg, Germany).

[4] = biological target: T1, human CC chemokine receptor 4 (CCR4); assay: calculated from the IC50; DT-40-CCR4+ cells, competitor 0.7 nM biotinylated IgG 9E
Procedure: as §1

[5] = biological target: T1, human CC chemokine receptor 4 (CCR4); assay: flow cytometry, saturation titration of IgG on CCRF-CEM cells; one site-specific binding fit
[6] = biological target: T1, human CC chemokine receptor 4 (CCR4); assay: flow cytometry competition; antibody titrated, competitor biotinylated MDC; cell line not given
Procedure: The cells were harvested from culture flasks, washed 2 times with PBS (400×g, 5 min, 4° C.) and resuspended in PBS containing 0.2% BSA and 0.09% NaN3. 1×10^5 cells per well were aliquoted into V-shaped 96-well plates (Greiner Bio-One, Frikenhausen, Germany). Cells were centrifuged (400×g, 5 min, 4° C.) and resuspended in 50 μl IgG, single chain or unlabeled ligand (1:10 dilution series starting on 100/500/26, 4 μg/ml) mixed with a fixed concentration of biotinylated ligand (10 or 20 nM, see legend to FIG. 24). The cells were incubated for 2 hours at 4° C. and mixed with a pipette every 45 min. The cells were washed three times with 150 μl PBS with 0.2% BSA and 0.09% NaN3 and stained with 3 μg/ml streptavidin PE (BD Biosciences) for 45 minutes at 4° C. Cells were washed, resuspended in 200 μl PBS with 0.2% BSA and 0.09% NaN3, and transferred to a U-shaped 96 well Costar (Corning, Schiphol-Rijik, The Netherlands) plate for flow cytometry using an FACS Canto II flow cytometer (BD Biosciences, Heidelberg, Germany). […] Apparent binding affinities (KD) were calculated according to the following equation derived from previously described methods (Kipriyanov et al, 1997b; Schodin & Kranz, 1993): […]

[7] = biological target: T1, human CC chemokine receptor 4 (CCR4); assay: flow cytometry competition on DT-40-CCR4+ cells; unlabelled IgG titrated, competitor 0.7 nM biotinylated IgG 9E
Procedure: (§2) Further competition experiments were carried out to assess whether or not the test antibodies recognise the same or overlapping epitopes, and to determine their relative affinities for CCR4. Antibodies 9E10J, 9E and KM3060var were tested using labelled 9E as a competitor.
as §1

[8] = biological target: T1, human CC chemokine receptor 4 (CCR4); assay: flow cytometry competition on DT-40-CCR4+ cells; unlabelled IgG titrated, competitor 3.3 nM biotinylated IgG 9E
Procedure: as §2, §1

ADCC of CCRF-CEM cells, EC50 (mean, N=5) [1]: 0.0247 µg/mL
EC50 (read off the curve) [2]: ~0.1 nM
Kd [3]: 0.06 nM
Kd [4]: 0.05 nM
Kd [5]: 0.13 nM
IC50 [6]: 0.85 nM
IC50 [7]: 0.06 nM
IC50 [8]: 0.15 nM
B1: 9E10J IgG (full length human IgG1, lambda) (antibody, V domains shown)
VH: QVQLVQSGAEVKKPGSSVKVSCKASGGTFSSYAISWVRQAPGQGLEWMGGIIPIFGTANYAQKFQGRVTMTRDTSTSTVYMELSSLRSEDTAVYYCARRGGSYFDYWGQGTLVTVSS
VL: SYVLTQPPSASGTPGQSVTISCSGSTSNIGSHYVFWYQQLPGTAPRLLIYRNHQRPSGVPDRLSGSKSGTSASLAISGLRSEDEADYYCAVWDDTLSGWVFGGGTKLTVLG
notes: also called IgG 9E10J; unmodified 9E10J

ADCC of CCRF-CEM cells, EC50 (mean, N=2) [1]: 0.186 µg/mL
EC50 (read off the curve) [2]: ~0.3 nM
Kd [3]: 0.33 nM
Kd [4]: 0.39 nM
Kd [5]: 0.37 nM
IC50 [6]: 3.9 nM
IC50 [7]: 0.44 nM
IC50 [8]: 3.5 nM
B2: 9E IgG (full length human IgG1, lambda) (antibody, V domains shown)
VH: B1 VH with S31N, M70I, R72A, T74E, V79A
VL: B1 VL
notes: also called IgG 9E; IgG1 9E
